Measurements as given in IntAct's records for PubMed 18441008.

B1: Estrogen receptor (Homo sapiens), P03372 (parent)
chain: MTMTLHTKASGMALLHQIQGNELEPLNRPQLKIPLERPLGEVYLDSSKPAVYNYPEGAAYEFNAAAAANAQVYGQTGLPYGPGSEAAAFGSNGLGGFPPLNSVSPSPLMLLHPPPQLSPFLQPHGQQVPYYLENEPSGYTVREAGPPAFYRPNSDNRRQGGRERLASTNDKGSMAMESAKETRYCAVCNDYASGYHYGVWSCEGCKAFFKRSIQGHNDYMCPATNQCTIDKNRRKSCQACRLRKCYEVGMMKGGIRKDRRGGRMLKHKRQRDDGEGRGEVGSAGDMRAANLWPSPLMIKRSKKNSLALSLTADQMVSALLDAEPPILYSEYDPTRPFSEASMMGLLTNLADRELVHMINWAKRVPGFVDLTLHDQVHLLECAWLEILMIGLVWRSMEHPGKLLFAPNLLLDRNQGKCVEGMVEIFDMLLATSSRFRMMNLQGEEFVCLKSIILLNSGVYTFLSSTLKSLEEKDHIHRVLDKITDTLIHLMAKAGLTLQQQHQRLAQLLLILSHIRHMSNKGMEHLYSMKCKNVVPLYDLLLEMLDAHRLHAPTSRGGASVEETDQSHLATAGSTSSHSLQKYYITGEAEGFPATV
partner: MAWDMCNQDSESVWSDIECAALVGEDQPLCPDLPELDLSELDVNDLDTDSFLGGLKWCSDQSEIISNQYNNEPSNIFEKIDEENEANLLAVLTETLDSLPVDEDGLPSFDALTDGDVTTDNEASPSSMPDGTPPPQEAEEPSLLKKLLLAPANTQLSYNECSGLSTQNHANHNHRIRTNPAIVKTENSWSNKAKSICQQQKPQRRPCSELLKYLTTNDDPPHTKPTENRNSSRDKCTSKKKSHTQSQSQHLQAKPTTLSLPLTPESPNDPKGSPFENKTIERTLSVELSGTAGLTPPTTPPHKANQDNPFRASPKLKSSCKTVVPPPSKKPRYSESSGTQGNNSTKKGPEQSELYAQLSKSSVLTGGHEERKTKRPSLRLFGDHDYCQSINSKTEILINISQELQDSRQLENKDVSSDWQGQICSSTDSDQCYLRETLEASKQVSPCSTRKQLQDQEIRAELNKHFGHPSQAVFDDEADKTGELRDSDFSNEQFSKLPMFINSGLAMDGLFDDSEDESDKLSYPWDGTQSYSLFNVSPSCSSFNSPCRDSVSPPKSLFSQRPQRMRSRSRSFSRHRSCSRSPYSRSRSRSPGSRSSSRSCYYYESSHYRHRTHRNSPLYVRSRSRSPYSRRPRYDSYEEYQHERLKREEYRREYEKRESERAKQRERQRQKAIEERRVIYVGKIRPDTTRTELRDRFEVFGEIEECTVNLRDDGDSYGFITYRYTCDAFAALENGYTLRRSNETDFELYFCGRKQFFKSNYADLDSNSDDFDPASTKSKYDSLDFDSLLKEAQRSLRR
B2: Peroxisome proliferator-activated receptor gamma coactivator 1-alpha (Homo sapiens), Q9UBK2 (parent)
chain: B1 partner
partner: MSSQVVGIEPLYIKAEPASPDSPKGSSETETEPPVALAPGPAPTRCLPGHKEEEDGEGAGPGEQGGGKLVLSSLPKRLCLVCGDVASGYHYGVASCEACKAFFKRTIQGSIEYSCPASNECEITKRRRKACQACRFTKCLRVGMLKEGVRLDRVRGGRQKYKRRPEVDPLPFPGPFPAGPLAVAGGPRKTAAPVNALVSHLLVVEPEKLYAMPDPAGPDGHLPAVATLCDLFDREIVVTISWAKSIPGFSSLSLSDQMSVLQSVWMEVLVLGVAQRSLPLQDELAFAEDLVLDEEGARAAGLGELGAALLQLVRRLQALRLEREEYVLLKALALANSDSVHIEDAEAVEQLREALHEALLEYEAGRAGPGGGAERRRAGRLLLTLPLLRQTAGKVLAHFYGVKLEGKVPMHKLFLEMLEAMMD
B3: Steroid hormone receptor ERR1 (Homo sapiens), P11474 (parent)
chain: B2 partner
partner: B1 partner

Variants of: B1
Conditions: with prgc1_human PPARGC1A

Variant | effect of a mutation on the interaction
V376M;E380Q | increasing interaction strength

Variants of: B2
Conditions: with err1_human ESRRA

Variant | effect of a mutation on the interaction
P202A;Q203A | with no effect
R204A;R205A | disrupting interaction strength

Variants of: B2
Conditions: with err1_human ESRRA
Remark: another data set of the same source

Variant | effect of a mutation on the interaction
Y213A | disrupting interaction strength
L210A | disrupting interaction strength
C207E | disrupting interaction strength
C207S | disrupting interaction strength
L211A | decreasing interaction strength

Variants of: B2
Conditions: with err1_human ESRRA
Remark: another data set of the same source

Variant | effect of a mutation on the interaction
K212R | decreasing interaction strength

Variants of: B2
Conditions: with err1_human ESRRA
Remark: another data set of the same source

Variant | effect of a mutation on the interaction
L210A | decreasing interaction strength
L144A;L210A | disrupting interaction strength
L144A | decreasing interaction strength

Variants of: B2
Conditions: with err1_human ESRRA
Remark: another data set of the same source

Variant | effect of a mutation on the interaction
L144A | disrupting interaction strength

Variants of: B3
Conditions: with prgc1_human PPARGC1A

Variant | effect of a mutation on the interaction
D423A | decreasing interaction strength
M258V;Q262E | disrupting interaction strength
H341A | decreasing interaction strength

Variants of: B3
Conditions: with prgc1_human PPARGC1A
Remark: another data set of the same source

Variant | effect of a mutation on the interaction
D423A | with no effect

Variants of: B3
Conditions: with prgc1_human PPARGC1A
Remark: another data set of the same source

Variant | effect of a mutation on the interaction
S259H | decreasing interaction strength
R315A | disrupting interaction strength
D338A | disrupting interaction strength

Variants of: B3
Conditions: with prgc1_human PPARGC1A
Remark: another data set of the same source

Variant | effect of a mutation on the interaction
E343A | decreasing interaction strength

Variants of: B3
Conditions: with prgc1_human PPARGC1A
Remark: another data set of the same source

Variant | effect of a mutation on the interaction
E343A | with no effect
